Results on 1 protein are retold here after patent US20250357519.

Data set [1] has as its target native equine heart cytochrome c (Sigma C2506), P00004.
The target in data set [2] is partially acetylated equine heart cytochrome c (Sigma C4186), P00004.
Sequence of partially acetylated equine heart cytochrome c (Sigma C4186), P00004 (P00004 2-105): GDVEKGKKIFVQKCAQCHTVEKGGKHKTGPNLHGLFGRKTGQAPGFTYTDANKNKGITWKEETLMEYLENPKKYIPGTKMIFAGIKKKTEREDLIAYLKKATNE

Sequence of native equine heart cytochrome c (Sigma C2506), P00004 (P00004 2-105): as above

B1: Strep-tag II-tagged DvH-FDH2 (recombinant formate dehydrogenase 2 from Desulfovibrio vulgaris Hildenborough, heterodimer of large and small subunit) (protein)
chain 1: MRMPRRTFIKLASASAGALAFAGLGQSLAPTVARAAELKIAKAKVTPSVCCFCAVGCGLLVYTDTQTGRSINIEGDPDHPTNEGTLCPKGASIWQTTERSKRVTKVLYRAPGAAAWEEKSWDWALPRIARKIKETRDATFELTNDKGQTVNRTRGIASVGSAAVDNEEGWLMQAMMRALGLVYIESHARIUHSSTVGALAESYGRGAMTNHWIDLKNSDVILIMGSNAAENHPISFKWVTRAQERGATLIHVDPRFTRTSAKADIHAHIRSGTDIAFFGGLIRYIMENDLFFRQYVVDYTNASYIVGADYGFADGLFTGFDAEKGTYNTKKWAFAADENGMTLKDPTLNDPRCVFQLMKAHYARYDRKTVSDVTGISEEQLATLWSTFASTGKPDRAGTILYAMGQCQHTVGVQNIRALSMIQLLLGNIGIAGGGVNALRGESNVQGTTDISLLCDNLSGYLPTPKASWATFDDYVKGTTPVDKDPKSANWWSNRGKYLASYMKSVYPTASHQDGYLWHPKVDDGKITDYSWLQIFERMSKGGFKGAFVWGQNPCAGGANAGKNRKAMETLDWMVVVNLFENESSLFWKGPGVDPAKVKTEVFFLPACMSVEKGGSIANSGRWLQWREPGPKPMGDSRSDGDIVLDLYDEIRKLYREEKGAFPEPVLALDTDYRTDGKYDHHKVAKTLNGKFLTDVTIGDKTYKAGQQVPGFAMLQADGSTTSGCWIFTGCYTDAGNMMARRDRTQTPEQAAIGLFPNWSYAWPANRRILYNRAAVDMTGKPFDPKRAVIAWNGEKWVGDVPDGGWKPGEKLPFIMIREGRGQLFGPGRVDGPFPEHYEPFESPLESHPFSKQRVNPTALAFSHEPKAVRDKRYPFICTTYRVTEQWQSGTMTRNTGWLKEMQPEGFCEISRELAKELGIANGDAVVLESLRGKVQVVAIVTPRLKPFKVMGEVMHEVGIPWQFGWGQHVGKGDSANLLSPSVGDPNTGIPETKVFMVNLRKA
chain 2: MRPLGSLPQGMRRVSRRHIREAYMNGKTFFIDQTRCTACRGCQAACKQWKKFGSIETRNTGSYQNPPDLGPSTFKLVRFNEVEVDGKLKWLFFPEQCRHCLEPPCKMVADALIPGAIVQDAETGAVLYTEKTKGLDYMEVRSACPYDIPRQDPATGLLTKCNMCIDRVQNGMLPACVKTCPTGTMHFGDRADMLELAQKRLGEVKKRSPAALLADSDLVRVLYLCELAPANYHSHMVAEADTSRIGPFSRRALLRLRPFA
For B1, in data set [1], the “reduction of native equine cytochrome c in air at doubled formate concentration (electronic spectra)” value is “Doubling the formate concentration resulted in near-stoichiometric reduction in air”; the “reduction of native equine cytochrome c in the presence of formate (absorbance at 550 nm), anaerobic” value was “stoichiometric reduction occurred under anaerobic conditions”; the “reduction of native equine cytochrome c in the presence of formate (absorbance at 550 nm), in air” value was ~80% underwent reduction in air. In data set [2], the “reduction of acetylated equine cytochrome c during DvH-FDH2 catalysis (absorbance at 550 nm)” value is “DvH-FDH2 does not reduce acetylated cytochrome c”.
